± gives the standard deviation of the averaged measurements.

This series deals with ATP. Briefly: switch fluorescence ratio, 500 uM ATP over buffer (Cy3 cluster intensity, sum of 5 cycles each) (fold (ratio)); higher = stronger signal-on switching upon ATP binding; sequences stand for … in TCGTCGGCAGCGTCAGATGTGTATAAGAGACAGTTTTTTTTTTTTTTTTTTTTTTTTT…TC. The following applies: aptamer strand: ATP DNA aptamer (quencher-CACCTGGGGGAGTATTGCGGAGGAAGG + anchor), 100 nM annealed; ATP concentration: 500 uM. In a few lines:
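Cy3-labelled switching-strand clusters on a modified Illumina MiSeq flow-cell were annealed to 100 nM quencher-labelled ATP aptamer, imaged in selection buffer, then imaged after 15 min with 500 uM ATP at 22 °C. Five buffer/ATP cycles ran, with NaOH stripping and re-annealing between them. The fluorescence ratio is summed target-cycle over summed buffer-cycle Cy3 intensity per cluster, averaged per switch-domain sequence. Clusters outside 100-1000 RFU were excluded.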
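Also: ATP exposure 15 min at 22 °C before imaging.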

Consider AAGTTCGTTT, for which the switch fluorescence ratio is 0.986 ± 0.026. Turning to AAGTTGAAGG, the switch fluorescence ratio worked out at 1 ± 0.013. To AAGTTGAGGA belongs 0.978 ± 0.016. As for AAGTTGAGTG, the switch fluorescence ratio was 0.9472 ± 0.0088. To AAGTTGCGGA belongs 0.975 ± 0.019. The same measure for AAGTTGGGAG: 1 ± 0.019.

In the case of AAGTTGGGTT, the switch fluorescence ratio was determined as 0.9633 ± 0.0079. In the case of AAGTTGTCAA, the switch fluorescence ratio turned out to be 1.011 ± 0.0052. The same measure for AAGTTGTGAC: 0.997 ± 0.028; for AAGTTTAGGG: 0.996 ± 0.027; for AAGTTTATCT: 0.989 ± 0.02. The same measure for AAGTTTCACG: 1 ± 0.058. The same measure for AAGTTTGGTG: 0.986 ± 0.042. With AAGTTTGTAG, the switch fluorescence ratio was 1 ± 0.03.

As to AAGTTTTGTT, the switch fluorescence ratio worked out at 0.987 ± 0.023.

Turning to AATAAAAGGA, the switch fluorescence ratio came to 0.997 ± 0.013. To AATAAAAGTT belongs 1.1 ± 0.14.

AATAAACAGG: the switch fluorescence ratio was 1.08 ± 0.041.

In the case of AATAAAGACG, the switch fluorescence ratio was found to be 0.952 ± 0.025. To AATAAAGCGT belongs 0.983 ± 0.028; to AATAAATCAT, 0.992 ± 0.024; to AATAAATGTA, 1.04 ± 0.048. To AATAACACGT belongs 1 ± 0.026.

Take AATAACTACC: the switch fluorescence ratio turned out to be 1.15 ± 0.032. The same measure for AATAACTGGT: 1.04 ± 0.028; for AATAAGAGGA: 1.02 ± 0.026; for AATAAGATTT: 1.02 ± 0.026. For the sequence AATAAGGCAT, the switch fluorescence ratio was determined as 1.01 ± 0.024. As to AATAAGTATT, the switch fluorescence ratio worked out at 1.024 ± 0.003. The same measure for AATAAGTCCT: 1.03 ± 0.038; for AATAATATAG: 0.996 ± 0.031; for AATAATATTT: 1.01 ± 0.021. The same measure for AATAATGGGG: 0.981 ± 0.049. To AATAATGTGC belongs 0.987 ± 0.074.

Consider AATAATTGAC, for which the switch fluorescence ratio is 1.099 ± 0.0086.

Turning to AATACAGAGG, the switch fluorescence ratio was determined as 1.0069 ± 0.00059.

Turning to AATACCGTTT, the switch fluorescence ratio was determined as 1.05 ± 0.03. The same measure for AATACTGTCG: 1.01 ± 0.016; for AATAGAGTTA: 1.02 ± 0.023. Take AATAGCAGGA: the switch fluorescence ratio amounted to 1.02 ± 0.02.

As for AATAGCCTTG, the switch fluorescence ratio amounted to 1.02 ± 0.013. To AATAGGAATT belongs 0.9708 ± 0.0059. The same measure for AATAGGAGAG: 0.987 ± 0.0099; for AATAGGCACA: 1.07 ± 0.0015; for AATAGGGCTT: 0.978 ± 0.04. The same measure for AATAGGTTGG: 0.994 ± 0.029; for AATATAGATG: 0.9885 ± 0.007. For the sequence AATATAGGT, the switch fluorescence ratio stood at 1.02 ± 0.033.

For the sequence AATATATACG, the switch fluorescence ratio was 1.0252 ± 0.00079.

Take AATATATACT: the switch fluorescence ratio was determined as 1.04 ± 0.027.

Take AATATCTGAC: the switch fluorescence ratio amounted to 1.18 ± 0.046. As for AATATGAG, the switch fluorescence ratio came out at 1.02 ± 0.018. Consider AATATGCTCC, for which the switch fluorescence ratio was 1.14 ± 0.064.

In the case of AATATGGCGT, the switch fluorescence ratio is 1.01 ± 0.029. To AATATTCATT belongs 0.985 ± 0.069; to AATATTCTAG, 0.994 ± 0.019; to AATATTGATG, 1.02 ± 0.044. The same measure for AATATTGCAC: 1.04 ± 0.021; for AATATTGGAT: 1.01 ± 0.023. To AATATTTCGC belongs 1.02 ± 0.018; to AATATTTGAG, 0.998 ± 0.02. With AATATTTGTG, the switch fluorescence ratio was determined as 1.15 ± 0.23. The same measure for AATCAGAAAG: 1.15 ± 0.24; for AATCATCCTC: 1.06 ± 0.043; for AATCATGGCG: 0.991 ± 0.07.

Take AATCATGTAG: the switch fluorescence ratio came to 1.01 ± 0.011. The same measure for AATCATTAGC: 0.985 ± 0.049. The same measure for AATCCCTGGG: 1.07 ± 0.033; for AATCCGCGGA: 0.964 ± 0.013. To AATCCTGGCG belongs 1.01 ± 0.032. On to AATCGCGGCC, for which the switch fluorescence ratio was 1.032 ± 0.0085. The same measure for AATCGCGGTA: 1.05 ± 0.033; for AATCGGGCGT: 0.982 ± 0.052; for AATCGGGCTG: 0.962 ± 0.042.

Turning to AATCGGGGGT, the switch fluorescence ratio was 1.002 ± 0.0097. To AATCGTACAG belongs 1.07 ± 0.019. To AATCGTGGTG belongs 0.982 ± 0.047. To AATCGTGTAT belongs 0.983 ± 0.035. As to AATCGTTGCT, the switch fluorescence ratio was 0.952 ± 0.039.

The values are drawn from the supplement of paper PMC10126150.
